# According to patent KR20240034671A (dated 2024):
# T1: human PTK7-Ig3-4-His (human, UniProt Q13308 221-409, limits assumed)
# T1 construct: domain: Ig3-4; Made from the hPTK7-Ig1-4-His construct by DpnI-mediated deletion mutagenesis; expressed in HEK293 cells; also called hPTK7-Ig3-4-His; STK7-lg3-4-His [sic]
# T1 sequence: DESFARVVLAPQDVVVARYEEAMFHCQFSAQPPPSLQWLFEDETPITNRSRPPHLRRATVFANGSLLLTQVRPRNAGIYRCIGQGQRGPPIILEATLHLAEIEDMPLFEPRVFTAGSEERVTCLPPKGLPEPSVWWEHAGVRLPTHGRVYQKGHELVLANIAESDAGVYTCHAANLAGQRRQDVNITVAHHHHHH
# B1: anti-PTK7 mAb-52 (antibody, V domains shown)
# VH: EVQLQQSGAELVKPGASVKLSCTASGFNIEDTYIHWVKQRPEQGLEWIGRIDPANGNDKYDPKFQGKATITADTSSNTAYLQLSSLTSEDTAVYYCARGDANYGSYWGQGTLVTVSA
# VL: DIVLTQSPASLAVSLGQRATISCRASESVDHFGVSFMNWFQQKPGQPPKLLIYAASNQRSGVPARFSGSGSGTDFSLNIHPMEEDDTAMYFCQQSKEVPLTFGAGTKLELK
# notes: Mouse monoclonal antibody from a hybridoma raised against purified human sPTK7, purified from ascites
# Target: T1, human PTK7-Ig3-4-His
# Assay: Ni-NTA pull-down of His-tagged construct incubated with mAb at 1:1 molar ratio, western blot
binder,measurement,value
B1,binding result,no binding
